Data published in US20030022247A1, “Substance which inhibits binding of information transfer molecule for 1175-tyrosine phosphorylated KDR/FLK-1 and usages of the same” (priority 2000, published 2003).
Blank lines part the entries; values can stand above or below the molecule they belong to. Square brackets hold non-standard residues; d marks the D form. Ends that are not written are not given here. pY = N[C@@H](Cc1ccc(OP(=O)(O)O)cc1)C(=O)O

Experiments:
[1] = target: T1, binding of the auto-phosphorylated KDR/Flk-1 and PLC-γ (Homo sapiens, UniProt P19174+P35968); experiment: In vitro binding of GST-PLC-γ C-SH2 to KDR/Flk-1 from NIH3T3-KDR cell extract; type: biochemical; settings: coexisting with GST-PLC-γ C-SH2 beads and extract of VEGF-stimulated NIH3T3-KDR
T1 construct: a fusion protein of GST and SH2 domain of the C-terminal side of PLC-γ (GST-PLC-γ C-SH2); host or cells: NIH3T3-KDR cell extract (KDR/Flk-1)
Description: Onto glutathione-Sepharose 4B beads (manufactured by Amersham Pharmacia Biotech), 1.5 μg of GST, a fusion protein of GST and SH2 domain (2 domains) of PLC-γ (GST-PLC-γ SH2-SH2), a fusion protein of GST and SH2 domain of the N-terminal side of PLC-γ (GST-PLC-γ N-SH2) and a fusion protein of GST and SH2 domain of the C-terminal side of PLC-γ (GST-PLC-γ C-SH2) (all manufactured by Santa Cruz Biotechnology Inc.) was immobilized respectively, and the cell extracts were added thereto, followed by incubation at 4° C. for 2 hours. The beads were washed three times with a cooled cell extraction buffer and heated in an SDS sample buffer to dissolve the protein bound to the beads, and then SDS-PAGE was carried out. The KDR/Flk-1 bound to each of the added proteins was detected by immunoblotting using the anti-KDR/Flk-1 antibody. The KDR/Flk-1 was detected in the VEGF-stimulated cell with GST-PLC-γ SH2-SH2 and GST-PLC-γ C-SH2, but KDR/Flk-1 was not detected with GST-PLC-γ N-SH2.
The same test of (2) was carried out by allowing the anti-PY1175 antibody and the PY1175 peptide to coexist at the time of the reaction of GST-PLC-γ C-SH2-immobilized beads with the cell extract. As a result, KDR/Flk-1 was not detected even in the VEGF-stimulated cell, and binding of the auto-phosphorylated KDR/Flk-1 and PLC-γ was inhibited by the anti-PY1175 antibody and the PY1175 peptide.

[2] = target: T2, 1175-tyrosine phosphorylated KDR/Flk-1 (Homo sapiens, UniProt P35968); experiment: Tissue immunostaining of human umbilical cord vein endothelial cells; type: cell-based; settings: 1 μg/ml peptide; cells 5 minutes after the VEGF stimulation
T2 construct: expressing endogenous KDR/Flk-1; host or cells: human umbilical cord vein endothelial cells (HUVEC)
Description: After blocking the fixed cells for 30 minutes with PBS containing 1% goat serum, tissue immunostaining was carried out using the anti-PY1175 antibody. The detection was carried out by fluorescence microscopic observation 30 minutes after treatment with an FITC-labeled anti-rabbit IgG antibody (manufactured by Cappel) diluted to 1/100. […] Accordingly, the anti-PY1175 antibody was useful for the detection of the 1175-tyrosine phosphorylation of KDR/Flk-1 by not only immunoblotting but also tissue immunostaining.

Flt-1 = Flt-1 (Homo sapiens, UniProt P17948); settings: VEGF binding to Flt-1; cited from earlier work
[3] = test system: various cancer cells transplanted into mice; settings: cited from earlier work
[4] = target: T3, mutated KDR/Flk-1 Y1175F (1175-tyrosine replaced by phenylalanine) (human, UniProt P35968 20-1356); experiment: immunoprecipitation with anti-KDR/Flk-1 antibody, immunoblotting with anti-PLC-γ antibody
T3 construct: Expressed in MSS31 cells by an adenovirus vector, VEGF-stimulated; cell extract; Phosphorylation at other tyrosines not specified

Molecule: vascular endothelial growth factor [VEGF]
Kd (Flt-1): 0.02 nM

Molecule: Cc1cc(C)c(/C=C2\C(=O)Nc3ccccc32)[nH]1 [SU5416]
angiogenesis, growth or metastasis of cancer cells [3]: inhibits angiogenesis, growth or metastasis

B1: phospholipase C-γ (PLC-γ) (enzyme, mouse, UniProt Q62077 2-1302, looked up)
chain: AGVATPCANGCGPGAPSEAEVLHLCRSLEVGTVMTLFYSKKSQRPERKTFQVKLETRQITWSRGADKIEGSIDIREIKEIRPGKTSRDFDRYQEDPAFRPDQSHCFVILYGMEFRLKTLSLQATSEDEVNMWIKGLTWLMEDTLQAATPLQIERWLRKQFYSVDRNREDRISAKDLKNMLSQVNYRVPNMRFLRERLTDLEQRSGDITYGQFAQLYRSLMYSAQKTMDLPFLETNALRTGERPEHCQVSLSEFQQFLLEYQGELWAVDRLQVQEFMLSFLRDPLREIEEPYFFLDELVTFLFSKENSVWNSQLDAVCPDTMNNPLSHYWISSSHNTYLTGDQFSSESSLEAYARCLRMGCRCIELDCWDGPDGMPVIYHGHTLTTKIKFSDVLHTIKEHAFVASEYPVILSIEDHCSIAQQRNMAQHFRKVLGDTLLTKPVDIAADGLPSPNQLRRKILIKHKKLAEGSAYEEVPTSVMYSENDISNSIKNGILYLEDPVNHEWYPHYFVLTSSKIYYSEETSSDQGNEDEEEPKEASSSTELHSSEKWFHGKLGAGRDGRHIAERLLTEYCIETGAPDGSFLVRESETFVGDYTLSFWRNGKVQHCRIHSRQDAGTPKFFLTDNLVFDSLYDLITHYQQVPLRCNEFEMRLSEPVPQTNAHESKEWYHASLTRAQAEHMLMRVPRDGAFLVRKRNEPNSYAISFRAEGKIKHCRVQQEGQTVMLGNSEFDSLVDLISYYEKHPLYRKMKLRYPINEEALEKIGTAEPDYGALYEGRNPGFYVEANPMPTFKCAVKALFDYKAQREDELTFTKSAIIQNVEKQDGGWWRGDYGGKKQLWFPSNYVEEMINPAVLEPEREHLDENSPLGDLLRGVLDVPACQIAIRPEGKNNRLFVFSISMPSVAQWSLDVAADSQEELQDWVKKIREVAQTADARLTEGKMMERRKKIALELSELVVYCRPVPFDEEKIGTERACYRDMSSFPETKAEKYVNKAKGKKFLQYNRLQLSRIYPKGQRLDSSNYDPLPMWICGSQLVALNFQTPDKPMQMNQALFMAGGHCGYVLQPSTMRDEAFDPFDKSSLRGLEPCVICIEVLGARHLPKNGRGIVCPFVEIEVAGAEYDSTKQKTEFVVDNGLNPVWPAKPFHFQISNPEFAFLRFVVYEEDMFSDQNFLAQATFPVKGLKTGYRAVPLKNNYSEDLELASLLIKIDIFPAKENGDLSPFSGISLRERASDASSQLFHVRAREGSFEARYQQPFEDFRISQEHLADHFDSRERSTSDGPSSATNLIEDPLHDKLWKCSL
notes: whole, on cells; Endogenous intracellular PLC-γ co-precipitated with KDR/Flk-1 from MSS31 cell extracts
binding result [4]: no binding

Results, then the molecule that gave them:

inhibition of binding of auto-phosphorylated KDR/Flk-1 and PLC-γ (GST-PLC-γ C-SH2) [1]: inhibited
inhibition of anti-PY1175 antibody staining by coexisting peptide [2]: staining was inhibited
Molecule: PY1175 peptide: SEQ ID NO:1: cysteine added to N-terminus of positions 1171 to 1180 of human KDR/Flk-1, tyrosine 1175 phosphorylated (CDGKD[pY]IVLPI)

inhibition of binding of auto-phosphorylated KDR/Flk-1 and PLC-γ (GST-PLC-γ C-SH2) [1]: inhibition was not found
Molecule: Y1175 peptide: SEQ ID NO:2: the same amino acid sequence of the PY1175, but the tyrosine is not phosphorylated (CDGKDYIVLPI; a peptide SEQ ID NO1 without phosphorylation) [reference compound]
